Test results taken from patent US20210332145A1 (SINGLE CELL TECHNOLOGY, published 2021).
Substitutions are numbered along the chain they refer to.

T1: human BCMA with a His tag (ACROBiosystems, Catalog No.: BCA-H522y) (human)
T1 construct: Bought His-tagged recombinant protein; also called huBCMA-His; Recombinant human BCMA
T1 chain: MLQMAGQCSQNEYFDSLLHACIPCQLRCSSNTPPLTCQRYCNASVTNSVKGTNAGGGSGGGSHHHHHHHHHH

T2: BCMA on cells (293T cells transfected with BCMA; H929, MM.1S and U266 cell lines expressing BCMA) (human, UniProt Q02223 1-184)
T2 construct: H929, MM.1S and U266 carry the native protein; also called B-cell Maturation Antigen; TNFRSF17
T2 sequence: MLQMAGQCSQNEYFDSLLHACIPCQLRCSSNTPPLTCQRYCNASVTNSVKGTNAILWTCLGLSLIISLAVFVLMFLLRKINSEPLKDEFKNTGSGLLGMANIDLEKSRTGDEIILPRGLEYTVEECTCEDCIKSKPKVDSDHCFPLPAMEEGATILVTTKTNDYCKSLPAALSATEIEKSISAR

T3: mouse BCMA with a His tag (ACROBiosystems, Catalog No.: BCA-M52H3) (mouse)
T3 construct: Bought His-tagged recombinant protein
T3 chain: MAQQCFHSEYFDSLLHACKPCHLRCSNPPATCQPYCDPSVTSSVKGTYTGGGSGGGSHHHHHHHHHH

B1: SCT-Aa17(h/h) (antibody, V domains shown)
VH: EVQLQQSGPELVKPGASVKMSCKASGYTFTSYVMDWVKQKPGQGLEWIGYINPYNDGTKYNEKFKGKATLTSDKSSSTVYMELSSLTSEDSAVYHCARSDYDYGYAMDYWGQGTSVTVSS
VL: DIQMTQSPASLSLSVGETVTITCRASENIYSNLAWYQQKQGNSPQLLVYSATHLADGVPSRFSGSGSGTQYSLKINSLQSEDFGCYYCQHFWGPPWTFGGGTKLEIK
notes: Full IgG format, chimeric: human IgG1 heavy chain constant region, human kappa light chain constant region
B2: SCT-Aa02 (antibody, V domains shown)
VH: EVKLLQSGGGLVQPGGSLKLSCAASGIDFSRYWMSWVRRAPGKGLEWIGEINPDSSTINSAPSLEDKFIISRDNAKNTLYLQMSKVRSEDTALYYCASLYYDYERDYAMDYWGQGASVTVSS
VL: DIVMTQSQKFMSTSVGDRVSVTCKASQNVGTNVAWYQQKPGQSPKALIYSASYRFSGVPDRFTGSGSGTDFTLTISNVQSEDLAEYFCQQYHSYPFTFGGGTKLEIK
B3: SCT-Aa06(h/h) (antibody, V domains shown)
VH: EVQLQQSGPELVKPGNSVKISCKASGYSFTGYFMNWVMQSHGKSLEWIGRINPYNGDTFYNQKFKGKATLTVDKSSSTAHMELRSLTSEDSAVYYCARLDYTNYNSYPMDYWGQGTSVTVSS
VL: DIQMTHTTSSLSASLGDRVTISCSASQGISNYLNWYLQKPDGTVKLLIYYTSNLHSGVPSRFSGSGSGTDFSLTISNLQPEDIATYYCQQYSKFPWTFGGGTKLEIK
notes: as for B1
B4: SCT-Aa16(h/h) (antibody, V domains shown)
VH: EVQLQQSGPELVKPGASVKMSCKGSGYTFTNYIMHWVKQKPGQGLEWIGYIIPYNDNTKYNEKFKGKATLTSDKSSSTAYMELSSLTSEDSAVYYCATYEYDVGLDYWGQGTTLTVSS
VL: B3 VL with I2L, H6Q, S26R, S30V, L37Q, Y50N, N53S, F71Y, Q79E, F94L
notes: as for B1
B5: SCT-Aa13(h/h) (antibody, V domains shown)
VH: QVQLQQSDAELVKPGASVKISCKVSGYTFTDYTIHWMKQRPEQGLEWIGYIYPRDGSTKYNEKFKGKATLTADKSSSTAYMQLNSLTSEDSAVYFCARWDYEGFDYWGQGTTLTVSS
VL: DIVMTQSPATLSVTPGDRVSLSCRASQSISDYLHWYQQKSHESPRLLIKYASQSISGIPSRFSGSGSGSDFTLSINSVEPEDVGVYYCQNGHSFPPTFGSGTKLEIK
notes: as for B1
B6: SCT-Aa18(h/h) (antibody, V domains shown)
VH: EVQLQQSGPELVKPGASVKISCKASGYTFISYVMHWVKQKPGQGLEWIGYIIPYNDGTKYNEKFKGKATLTSDKSSSTAYMELSSLTSEDSAVYYCAKWGNWDEGTWFPYWGQGTLVTVSA
VL: DVLMTQTPLSLPVSLGDQASFSCRSSQSIVHSDGNTYLEWYLQKPGQSPKLLIYKISNRFSGVPDRFSGSGSGTDFTLKISRVEAEDLGVYYCFQGSHVPWTFGGGTKLEIK
notes: as for B1

Tests used:
[1] = target: T1, human BCMA with a His tag …; experiment: SPR, Biacore T200
Protocol: The binding affinity of select anti-BCMA was measured on a surface plasmon resonance (SPR) instrument, Biacore T200™, against human BCMA by a method known in the art.
In experiments performed essentially as described above, a subset of anti-human BCMA antibodies of the present disclosure bind human BCMA with a His tag (ACROBiosystems, Beijing, China, Catalog No.: BCA-H522y, SEQ ID NO:2) with affinity shown in Table 6.

[2] = target: T2, BCMA on cells (293T cells transfected …); experiment: flow cytometry, H929 cells
Protocol: A cell line expressing BCMA, H929, was used to assess binding by anti-BCMA antibodies on the native protein on the cell surface by flow cytometry according to the known art. A subset of anti-human BCMA antibodies were assayed for binding to H929 and the fraction of cells bound the labeled antibody above background defined by control is shown in Table 8.

[3] = target: T2, BCMA on cells (293T cells transfected …); experiment: flow cytometry, H929 cells; remark: listed apart in the source
[4] = target: T4, cyno BCMA with a His tag (ACROBiosystems, Catalog No.: BCA-052H7) (cyno); experiment: ELISA, plate-coated cyno BCMA-His
T4 construct: Bought His-tagged recombinant protein
T4 sequence (chain, as listed by the source limits assumed): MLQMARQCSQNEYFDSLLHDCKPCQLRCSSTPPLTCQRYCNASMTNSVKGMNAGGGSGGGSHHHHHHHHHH
Protocol: (§1) The recombinantly expressed antibodies were used to assess binding activity to BCMA of different species origins by conventional ELISA according to the known art. Recombinant human BCMA, cyno BCMA, and mouse BCMA were coated onto ELISA plates to detect binding at serially diluted concentrations of the anti-BCMA antibody preparations.
(§2) The ability for antibodies of the present disclosure to bind human BCMA was measured with an ELISA assay. For the BCMA binding assay, a 96-well plate (Nunc) is coated with human BCMA with a His tag (ACROBiosystems, Catalog No.: AC108P1-180611F2-Bulk, SEQ ID NO:2) at 0.2 μg/well overnight at 4° C. Wells are blocked for 2 h with blocking buffer (PBS containing 3% bovine serum albumin). Wells are washed three times with PBS containing 0.1% Tween-20. Anti-human BCMA antibodies of the present disclosure or control IgG (100 μL) is then added and incubated at room temperature for 1 h. After washing, the plate is incubated with 100 μL of goat anti-mouse IgG Fcγ Fragment Specific-HRP conjugate (Jackson ImmunoResearch) at room temperature for 1 h. The plates are washed and then incubated with 100 μL of 3,3′,5,5′-tetra-methylbenzidine. The absorbance at 450 nm is read on a microplate reader. The half maximal effective concentration (EC50) is calculated using GraphPad Prism 6 software.
In experiments performed essentially as described above, anti-human BCMA antibodies of the present disclosure bind cyno BCMA with a His tag (ACROBiosystems, Beijing, China, Catalog No.: BCA-052H7, SEQ ID NO:110) with an EC50 values shown in Table 4.

[5] = target: T1, human BCMA with a His tag …; experiment: ELISA, plate-coated human BCMA-His
Protocol: as §1, §2
In experiments performed essentially as described above, anti-human BCMA antibodies of the present disclosure bind human BCMA with a His tag (ACROBiosystems, Beijing, China, Catalog No.: BCA-H522y, SEQ ID NO:2) with an EC50 values shown in Table 3.

[6] = target: T3, mouse BCMA with a His tag …; experiment: ELISA, plate-coated mouse BCMA-His
Protocol: as §1, §2
In experiments performed essentially as described above, anti-human BCMA antibodies of the present disclosure bind mouse BCMA with a His tag (ACROBiosystems, Beijing, China, Catalog No.: BCA-M52H3, SEQ ID NO:109) with an EC50 values shown in Table 5.

[7] = target: T2, BCMA on cells (293T cells transfected …); experiment: flow cytometry, 293T cells transfected with BCMA, above parental 293T background
[8] = target: T2, BCMA on cells (293T cells transfected …); experiment: flow cytometry, 293T cells transfected with BCMA

Binder | Kd [1] | koff [1] | kon [1] | Positive (%) [2] | Mean fluorescent intensity [3] | EC50 [4] | EC50 [5] | EC50 [6] | Positive (%) [7] | binding result [8]
B1 | 2.45 nM | 0.0132 s⁻¹ | 5.39e+06 M⁻¹ s⁻¹ | 75% | 232 | 2.17 µg/mL | 0.00356 µg/mL | 4.33 µg/mL | 43% | 
B2 |  |  |  |  |  |  |  |  |  | binds
B3 | 5.38 nM | 0.02 s⁻¹ | 3.72e+06 M⁻¹ s⁻¹ | 99.6% | 1260 | 0.0976 µg/mL | 0.00278 µg/mL | 0.0972 µg/mL | 82.8% | 
B4 | 26.7 nM | 0.199 s⁻¹ | 7.43e+06 M⁻¹ s⁻¹ | 96.1% | 853 | 0.0778 µg/mL | 0.00201 µg/mL | 1.08 µg/mL | 68.1% | 
B5 | 4.85 nM | 0.0157 s⁻¹ | 3.23e+06 M⁻¹ s⁻¹ | 96.5% | 756 | 0.131 µg/mL | 0.00268 µg/mL | 0.019 µg/mL | 74.3% | 
B6 | 12.2 nM | 0.0506 s⁻¹ | 4.15e+06 M⁻¹ s⁻¹ | 97% | 875 | 0.0788 µg/mL | 0.00268 µg/mL | 0.271 µg/mL | 76.1% | 
